Test results reported in IntAct's records for PubMed 29610859.

Biological target: ubql1_human UBQLN1 (UniProt Q9UMX0)
Sequence (Q9UMX0 whole entry): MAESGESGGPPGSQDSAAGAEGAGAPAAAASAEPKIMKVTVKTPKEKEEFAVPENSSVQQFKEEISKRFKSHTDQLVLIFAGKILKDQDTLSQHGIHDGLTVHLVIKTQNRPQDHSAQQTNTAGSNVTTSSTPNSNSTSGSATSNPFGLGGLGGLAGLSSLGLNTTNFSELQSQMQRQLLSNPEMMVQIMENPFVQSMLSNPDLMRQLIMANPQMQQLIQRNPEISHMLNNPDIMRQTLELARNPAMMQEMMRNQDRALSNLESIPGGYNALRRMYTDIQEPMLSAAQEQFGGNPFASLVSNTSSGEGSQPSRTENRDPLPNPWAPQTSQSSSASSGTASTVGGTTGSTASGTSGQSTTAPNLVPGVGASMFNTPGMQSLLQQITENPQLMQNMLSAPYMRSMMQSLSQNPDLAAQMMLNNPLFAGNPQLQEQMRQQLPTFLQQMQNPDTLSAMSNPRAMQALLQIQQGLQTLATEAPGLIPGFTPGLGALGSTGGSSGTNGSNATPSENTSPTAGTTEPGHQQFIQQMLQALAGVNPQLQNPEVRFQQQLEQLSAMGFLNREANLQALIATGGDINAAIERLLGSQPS

Cytochrome c oxidase subunit 1 (Homo sapiens) (from UniProt P00395) V83I
effect of a mutation on the interaction: with no effect
